Columns and labels:
Experiment in all cases: cell-based or functional assay
[1] = biological target: HIV-1 Env of pseudovirus HIV-16055-2.3 (HIV-1)
[2] = biological target: HIV-1 Env of pseudovirus 191084 B7-19 (HIV-1)
[3] = biological target: HIV-1 Env of pseudovirus 62357_14_D3_4589 (HIV-1)
[4] = biological target: HIV-1 Env of pseudovirus Du172.17 (HIV-1)
[5] = biological target: HIV-1 Env of pseudovirus 620345.c01 (HIV-1)
[6] = biological target: HIV-1 Env of pseudovirus 235-47 (HIV-1)
[7] = biological target: HIV-1 Env of pseudovirus REJO4541.67 (HIV-1)
[8] = biological target: HIV-1 Env of pseudovirus ZM233M.PB6 (HIV-1)
[9] = biological target: HIV-1 Env of pseudovirus 1054_07_TC4_1499 (HIV-1)
[10] = biological target: HIV-1 Env of pseudovirus C3347.c11 (HIV-1)
[11] = biological target: HIV-1 Env of pseudovirus Ce704809221_1B3 (HIV-1)
[12] = biological target: HIV-1 Env of pseudovirus CNE8 (HIV-1)
[13] = biological target: HIV-1 Env of pseudovirus 3103.v3.c10 (HIV-1)
[14] = biological target: HIV-1 Env of pseudovirus R3265.c06 (HIV-1)
[15] = biological target: HIV-1 Env of pseudovirus R2184.c04 (HIV-1)
[16] = biological target: HIV-1 Env of pseudovirus Q842.d12 (HIV-1)
[17] = biological target: HIV-1 Env of pseudovirus C1080.c03 (HIV-1)
[18] = biological target: HIV-1 Env of pseudovirus Ce703010054_2A2 (HIV-1)
[19] = biological target: HIV-1 Env of pseudovirus Ce0393_C3 (HIV-1)
[20] = biological target: HIV-1 Env of pseudovirus T251-18 (HIV-1)
[21] = biological target: HIV-1 Env of pseudovirus 7030102001E5(Rev-) (HIV-1)
[22] = biological target: HIV-1 Env of pseudovirus 6535.3 (HIV-1)
[23] = biological target: HIV-1 Env of pseudovirus CAAN5342.A2 (HIV-1)
[24] = biological target: HIV-1 Env of pseudovirus HIV-001428-2.42 (HIV-1)
[25] = biological target: HIV-1 Env of pseudovirus CAP210.2.00.E8 (HIV-1)
[26] = biological target: HIV-1 Env of pseudovirus 1056_10_TA11_1826 (HIV-1)
[27] = biological target: HIV-1 Env of pseudovirus CNE58 (HIV-1)
[28] = biological target: HIV-1 Env of pseudovirus 249M B10 (HIV-1)
[29] = biological target: HIV-1 Env of pseudovirus X1193_c1 (HIV-1)
[30] = biological target: HIV-1 Env of pseudovirus Q259.d2.17 (HIV-1)
[31] = biological target: HIV-1 Env of pseudovirus Ce0682_E4 (HIV-1)
[32] = biological target: HIV-1 Env of pseudovirus 0815.v3.c3 (HIV-1)
[33] = biological target: HIV-1 Env of pseudovirus 3301.v1.c24 (HIV-1)
[34] = biological target: HIV-1 Env of pseudovirus BJOX009000.02.4 (HIV-1)
[35] = biological target: HIV-1 Env of pseudovirus 246F C1G (HIV-1)
[36] = biological target: HIV-1 Env of pseudovirus X1254_c3 (HIV-1)
[37] = biological target: HIV-1 Env of pseudovirus 3817.v2.c59 (HIV-1)

PGDM1400 (antibody)
IC50 [1]: < 1 ng/mL
IC80 [1]: 3 ng/mL
IC50 [2]: < 1 ng/mL
IC80 [2]: 7 ng/mL
IC50 [3]: > 50 µg/mL
IC80 [3]: > 50 µg/mL
IC50 [4]: 5.18 µg/mL
IC80 [4]: 22 µg/mL
IC50, titer in TZM.bl cells [5]: 9 ng/mL
IC80, titer in TZM.bl cells [5]: 40.3 µg/mL
IC50, titer in TZM.bl cells [6]: 5 ng/mL
IC80, titer in TZM.bl cells [6]: 0.032 µg/mL
IC50 [7]: 0.028 µg/mL
IC80 [7]: 0.992 µg/mL
IC50 [8]: < 1 ng/mL
IC80 [8]: 1 ng/mL
IC50 [9]: > 50 µg/mL
IC80 [9]: > 50 µg/mL
IC50, titer in TZM.bl cells [10]: 0.011 µg/mL
IC80, titer in TZM.bl cells [10]: 0.051 µg/mL
IC50 [11]: 0.28 µg/mL
IC80 [11]: 1.1 µg/mL
IC50, titer in TZM.bl cells [12]: < 1 ng/mL
IC80, titer in TZM.bl cells [12]: 0.01 µg/mL
IC50, titer in TZM.bl cells [13]: 0.671 µg/mL
IC80, titer in TZM.bl cells [13]: 2 µg/mL
IC50, titer in TZM.bl cells [14]: 0.013 µg/mL
IC80, titer in TZM.bl cells [14]: 0.041 µg/mL
IC50, titer in TZM.bl cells [15]: 3 ng/mL
IC80, titer in TZM.bl cells [15]: 0.012 µg/mL
IC50 [16]: < 1 ng/mL
IC80 [16]: 2 ng/mL
IC50, titer in TZM.bl cells [17]: < 1 ng/mL
IC80, titer in TZM.bl cells [17]: < 1 ng/mL
IC50 [18]: 0.015 µg/mL
IC80 [18]: 0.26 µg/mL
IC50 [19]: 0.015 µg/mL
IC80 [19]: 0.044 µg/mL
IC50, titer in TZM.bl cells [20]: 8.62 µg/mL
IC80, titer in TZM.bl cells [20]: 43.1 µg/mL
IC50 [21]: > 50 µg/mL
IC80 [21]: > 50 µg/mL
IC50 [22]: > 50 µg/mL
IC80 [22]: > 50 µg/mL
IC50 [23]: > 50 µg/mL
IC80 [23]: > 50 µg/mL
IC50 [24]: < 1 ng/mL
IC80 [24]: 0.027 µg/mL
IC50 [25]: 0.034 µg/mL
IC80 [25]: 0.514 µg/mL
IC50 [26]: 3.26 µg/mL
IC80 [26]: 11.8 µg/mL
IC50 [27]: 4 ng/mL
IC80 [27]: 0.014 µg/mL
IC50 [28]: 0.039 µg/mL
IC80 [28]: 0.786 µg/mL
IC50, titer in TZM.bl cells [29]: 0.219 µg/mL
IC80, titer in TZM.bl cells [29]: 0.781 µg/mL
IC50 [30]: 0.166 µg/mL
IC80 [30]: > 50 µg/mL
IC50 [31]: 0.01 µg/mL
IC80 [31]: 0.043 µg/mL
IC50, titer in TZM.bl cells [32]: > 50 µg/mL
IC80, titer in TZM.bl cells [32]: > 50 µg/mL
IC50, titer in TZM.bl cells [33]: 0.048 µg/mL
IC80, titer in TZM.bl cells [33]: 0.245 µg/mL
IC50, titer in TZM.bl cells [34]: 0.443 µg/mL
IC80, titer in TZM.bl cells [34]: 1.29 µg/mL
IC50 [35]: > 50 µg/mL
IC80 [35]: > 50 µg/mL
IC50, titer in TZM.bl cells [36]: > 50 µg/mL
IC80, titer in TZM.bl cells [36]: > 50 µg/mL
IC50, titer in TZM.bl cells [37]: > 50 µg/mL
IC80, titer in TZM.bl cells [37]: > 50 µg/mL

— patent US20230002480A1
